Molecular target: MCPH1-BRCT-eCR (tandem BRCT 2-3 of MCPH1) tandem BRCT domain (BRCT2-3)
Test: FRAP of eGFP in live cells
Conditions: reference: DMSO, outside spontaneous damage foci; sites S139

## H2AX (from UniProt P16104) ETO ~1 h, within a damage focus
  other: FRAP recovery half-life: same; reference 1.07 ± 0.76

From paper PMC12635110
